B1: CPEB3 Ribozyme (parent)
chain: UAACAGGGGGCCACAGCAGAAGCGUUCACGUCGCAGCCCCUGUCAGAUUCUGGUGAAUCUGCGAAUUCUGCUGUAUAUCUC

Variants of: B1
Test: self-cleavage, relative activity (ratio to wild type); higher = more cleavage; in vitro, sequencing
Procedure, shortened: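 Barcoded CPEB3 ribozyme mutants, produced by rounds of error-prone PCR, self-cleaved while being transcribed with T7 RNA polymerase for 5 hours at 37°C and during a subsequent 15 min DNase I step before EDTA was added. Sequencing of template-switched cDNA on Illumina gave cleaved and total reads, and DNA sequencing assigned barcodes to variants. Each variant's relative activity is its cleaved/total read fraction divided by the unmutated ribozyme's fraction, averaged across three batches. A variant needed a minimum of 5 reads.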

Variant	self-cleavage
U48A U60C	0.14
U48A U60G	0.19
U48A U66A	0.36
U48A U66C	0.16
U48A U66G	0.43
U48A U67C	0.25
U48A U69A	0.18
U48A U69C	0.44
U48A U69G	0.34
U48A U72A	0.22
U48A U72C	0.45
U48A U72G	0.58
U48A U74A	0.98
U48A U76A	0.5
U48A U76C	0.67
U48A U78A	0.42
U48A U78C	0.35
U48A U80A	0.87
U48A U80C	0.57
U48C	0.65
U48C A56C	0.33
U48C A56G	0.38
U48C A56U	0.38
U48C A57C	0.5

Variant	self-cleavage
U48C A57G	1.11
U48C A57U	0.58
U48C A64C	0.18
U48C A64G	0.41
U48C A64U	0.27
U48C A65C	0.21
U48C A65G	0.27
U48C A65U	0.27
U48C A75C	1.07
U48C A75G	0.43
U48C A75U	0.71
U48C A77C	0.61
U48C A77G	0.6
U48C A77U	0.65
U48C C50A	0.25
U48C C50U	0.54
U48C C59A	0.19
U48C C59U	0.39
U48C C62U	0.33
U48C C68A	0.34
U48C C68G	0.18
U48C C71A	0.49
U48C C71U	0.32
U48C C79A	0.89

Variant	self-cleavage
U48C C79G	0.74
U48C C79U	0.88
U48C C81U	1
U48C G52A	0.87
U48C G52C	0.42
U48C G52U	0.84
U48C G53A	0.69
U48C G55A	0.32
U48C G55C	0.36
U48C G61A	0.33
U48C G61C	0.18
U48C G63A	0.64
U48C G63C	0.47
U48C G63U	0.57
U48C G70A	0.19
U48C G70C	0.21
U48C G73C	1.23
U48C G73U	0.95
U48C U49A	0.48
U48C U49C	0.32
U48C U49G	0.29
U48C U51A	0.42
U48C U51C	0.49
U48C U51G	0.33

Variant	self-cleavage
U48C U54A	0.71
U48C U54C	0.4
U48C U54G	0.38
U48C U58A	0.23
U48C U58C	0.34
U48C U58G	0.25
U48C U60A	0.26
U48C U60C	0.26
U48C U60G	0.33
U48C U66A	0.44
U48C U66C	0.27
U48C U67A	0.3
U48C U67C	0.3
U48C U69A	0.37
U48C U69C	0.32
U48C U69G	0.36
U48C U72A	0.4
U48C U72C	0.7
U48C U74A	0.88
U48C U74C	1.02
U48C U74G	1.02
U48C U76A	0.72
U48C U76C	0.67
U48C U78A	0.86

Variant	self-cleavage
U48C U78C	0.54
U48C U78G	0.94
U48C U80A	0.68
U48C U80C	0.68
U48G	0.5
U48G A56G	0.28
U48G A57C	1.11
U48G A57G	0.4
U48G A57U	1.07
U48G A64G	0.45
U48G A64U	0.17
U48G A65G	0.23
U48G A75G	0.3
U48G G53C	0.55
U48G U49A	0.52
U48G U49C	0.46
U48G U51C	0.53
U48G U54C	0.19
U48G U60G	0.22
U48G U66C	0.45
U48G U67A	0.38
U48G U69A	0.21
U48G U69C	0.34
U48G U72A	0.44

Variant	self-cleavage
U48G U72C	0.44
U48G U76A	0.43
U48G U78C	0.59
U48G U80C	0.6
U49A	0.71
U49A A56G	0.59
U49A A56U	1.19
U49A A57G	0.5
U49A A57U	0.4
U49A A64G	0.51
U49A A64U	0.25
U49A A65C	0.13
U49A A65G	0.29
U49A A65U	0.47
U49A A75G	0.39
U49A A75U	0.64
U49A A77G	0.46
U49A A77U	0.9
U49A C50A	0.5
U49A C59A	0.34
U49A C59U	0.19
U49A C62A	0.26
U49A C62U	0.44
U49A C71G	0.24

Variant	self-cleavage
U49A C71U	0.26
U49A C79U	1.07
U49A G52A	0.84
U49A G53A	0.79
U49A G55A	0.78
U49A G55C	0.62
U49A G61C	0.19
U49A G63A	0.69
U49A G63C	0.88
U49A G63U	0.63
U49A G70A	0.49
U49A G70U	0.24
U49A G73A	1.28
U49A U51A	0.45
U49A U51C	0.66
U49A U54A	0.81
U49A U54C	0.54
U49A U54G	0.27
U49A U58A	0.21
U49A U58C	0.33
U49A U60A	0.21
U49A U60C	0.32
U49A U66A	0.24

— the RNAGym collection of RNA variant scans (doi:10.1093/nar/gkz1192)
